Data: article PMC3708853

Tests used:
[1] = target: wild-type CD47 re-expressed in CD47-deficient JinB8 T cells (UniProt Q08722)
[2] = target: CD47 on Jurkat T cells (human (endogenous in Jurkat)) (UniProt Q08722)

Substance	inhibition of CD69 induction (mRNA, real-time PCR) in anti-CD3-activated JinB8 cells transfected with wild-type CD47 [1] [%]	reduction of CD69 mRNA expression (real-time PCR) in Jurkat T cells activated by anti-CD3 antibody for 2 hours, BAD-1 10 µg/ml; no block in CD47-deficient JinB8 T cells [2] [%]	reduction of CD69 mRNA expression (real-time PCR) in Jurkat T cells activated by anti-CD3 antibody for 2 hours, TSP-1 10 µg/ml; no inhibition in CD47-deficient JinB8 T cells [2] [%]
Blastomyces adhesin-1 (BAD-1), native protein purified from B. dermatitidis yeast (natural protein)	34.9	65	–
recombinant thrombospondin-1 (TSP-1) (from UniProt P07996 19-1170) (natural protein)	35.1	–	45
